Results from paper PMC6326545.

Target: rat TRPV1 ion channel (rat) (UniProt O35433)
Sequence of UniProt O35433 (O35433 whole entry): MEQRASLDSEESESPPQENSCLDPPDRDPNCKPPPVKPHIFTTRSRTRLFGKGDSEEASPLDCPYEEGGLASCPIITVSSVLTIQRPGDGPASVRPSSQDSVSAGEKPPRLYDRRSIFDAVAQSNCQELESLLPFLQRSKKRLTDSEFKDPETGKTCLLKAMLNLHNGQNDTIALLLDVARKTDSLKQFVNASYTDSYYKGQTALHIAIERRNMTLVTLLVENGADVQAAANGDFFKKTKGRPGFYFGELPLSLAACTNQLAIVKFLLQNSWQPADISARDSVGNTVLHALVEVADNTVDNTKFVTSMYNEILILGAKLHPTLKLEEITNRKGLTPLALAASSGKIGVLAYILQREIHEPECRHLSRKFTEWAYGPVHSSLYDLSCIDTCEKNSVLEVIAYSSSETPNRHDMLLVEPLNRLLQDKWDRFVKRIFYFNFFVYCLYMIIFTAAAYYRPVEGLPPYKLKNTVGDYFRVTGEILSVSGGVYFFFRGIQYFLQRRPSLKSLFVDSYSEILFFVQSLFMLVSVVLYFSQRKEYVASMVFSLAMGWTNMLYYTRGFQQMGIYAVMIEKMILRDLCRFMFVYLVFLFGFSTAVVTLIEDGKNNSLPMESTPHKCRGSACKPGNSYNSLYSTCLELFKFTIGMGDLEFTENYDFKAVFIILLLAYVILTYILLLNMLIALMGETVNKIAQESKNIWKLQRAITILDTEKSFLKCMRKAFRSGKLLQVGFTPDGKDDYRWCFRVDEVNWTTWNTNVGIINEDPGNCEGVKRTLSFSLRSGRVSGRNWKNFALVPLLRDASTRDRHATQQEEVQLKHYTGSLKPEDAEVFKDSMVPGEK

Row | Substance | EC50 of TRPV1 activation (two-electrode voltage clamp, oocytes), fold over wild-type DkTx (fold over wild-type DkTx)
1 | DkTx E7A (natural protein) | 11
2 | DkTx V8A (natural protein) | 16
